This passage reports Km results from patent US20020177203A1, “Alpha2 subunit of prolyl 4-hydroxylase” (priority 1996, published 2002).

Substrate in data set [1]: O=C1O[C@H]([C@@H](O)CO)C(O)=C1O
Put plainly: Prolyl 4-hydroxylase activity assay (decarboxylation of 2-oxo[1-14C]glutarate), type 1 enzyme. The format is biochemical, human. Particulars: other: α12β2, recombinant enzyme from insect cells, 0.1% Triton X-100 extract; pH 7.8.

Substrate in data set [2]: O=C1O[C@H]([C@@H](O)CO)C(O)=C1O
In words: Prolyl 4-hydroxylase activity assay (decarboxylation of 2-oxo[1-14C]glutarate), type 2 enzyme. The format is biochemical. To be noted: other: α22β2 (mouse α2, human PDI/β), recombinant enzyme from insect cells; pH 7.8.

B1: human type 1 prolyl 4-hydroxylase tetramer (α12β2) (Homo sapiens) (protein)
chain: HPGFFTSIGQMTDLIHTEKDLVTSLKDYIKAEEDKLEQIKKWAEKLDRLTSTATKDPEGFVGHPVNAFKLMKRLNTEWSELENLVLKDMSDGFISNLTIQRQYFPNDEDQVGAAKALLRLQDTYNLDTDTISKGNLPGVKHKSFLTAEDCFELGKVAYTEADYYHTELWMEQALRQLDEGEISTIDKVSVLDYLSYAVYQQGDLDKALLLTKKLLELDPEHQRANGNLKYFEYIMAKEKDVNKSASDDQSDQKTTPKKKGVAVDYLPERQKYEMLCRGEGIKMTPRRQKKLFCRYHDGNRNPKFILAPAKQEDEWDKPRIIRFHDIISDAEIEIVKDLAKPRLRRATISNPITGDLETVHYRISKSAWLSGYENPVVSRINMRIQDLTGLDVSTAEELQVANYGVGGQYEPHFDFARKDEPDAFKELGTGNRIATWLFYMSDVSAGGATVFPEVGASVWPKKGTAVFWYNLFASGEGDYSTRHAACPVLVGNKWVSNKWLHERGQEFRRPCTLSELE
notes: made in house; host or cells: Spodoptera frugiperda Sf9 insect cells (baculovirus co-infection); 0.1% Triton X-100 extract
Turning to B1, the Michaelis constant (Km) in data set [1] came out at 330 µM.

B2: mouse/human type 2 prolyl 4-hydroxylase tetramer (α22β2) (Mus musculus) (protein)
chain: WVQAEFFTSIGHMTDLIYAEKDLVQSLKEYILVEEAKLAKIKSWASKMEALTSRSAADPEGYLAHPVNAYKLVKRLNTDWPALGDLVLQDASAGFVANLSVQRQFFPTDEDESGAARALMRLQDTYKLDPDTISRGELPGTKYQAMLSVDDCFGLGRSAYNEGDYYHTVLWMEQVLKQLDAGEEATVTKSLVLDYLSYAVFQLGDLHRAVELTRRLLSLDPSHERAGGNLRYFERLLEEERGKSLSNQTDAGLATQENLYERPTDYLPERDVYESLCRGEGVKLTPRRQKKLFCRYHHGNRVPQLLIAPFKEEDEWDSPHIVRYYDVMSDEEIERIKEIAKPKLARATVRDPKTGVLTVASYRVSKSSWLEEDDDPVVARVNRRMQHITGLTVKTAELLQVANYGMGGQYEPHFDFSRSDDEDAFKRLGTGNRVATFLNYMSDVEAGGATVFPDLGAAIWPKKGTAVFWYNLLRSGEGDYRTRHAACPVLVGCKWVSNKWFHERGQEFLRPCGTTEVD
notes: the cDNA clones, considered in combination, cover the whole coding region of the mouse α2 subunit; made in house; host or cells: Spodoptera frugiperda Sf9 insect cells (baculovirus pVL1392 construct, co-infection with PDI/β virus); 0.1% Triton X-100 extract
As to B2, the Michaelis-Menten constant (Km) in data set [2] is 340 µM.

The term Km denotes the substrate concentration at which the rate is half of its maximum.
